Results on six proteins are retold here after publication PMC3942423 (Nature chemical biology, 2009).

Substrate in data set [1]: O=[N+]([O-])c1ccc(O[C@H]2O[C@H](CO)[C@@H](O)[C@H](O)[C@@H]2O)cc1
The experiment in a line: 4NP-Man hydrolysis kinetics. The data set is classed as biochemical, Bacteroides thetaiotaomicron. The settings on record: other: substrate 4NP-Man.

Substrate in data set [2]: OC[C@H]1O[C@H](O[C@H]2[C@@H](O)[C@H](O)[C@@H](CO)O[C@@H]2O)[C@@H](O)[C@@H](O)[C@@H]1O
The experiment in a line: mannobiose hydrolysis kinetics. It counts as biochemical, Bacteroides thetaiotaomicron. The conditions noted are these: other: most active mannobiose substrate.

Substrate in data set [3]: OC[C@H]1O[C@H](O[C@@H]2[C@H](O)[C@@H](O)O[C@H](CO)[C@H]2O)[C@@H](O)[C@@H](O)[C@@H]1O
The experiment in a line: purified protein, by the assay type. The settings on record: other: most active mannobiose substrate; enzyme Bt3773; pH 7.0; 37.0 °C.

B1: Bt3990 (Bacteroides thetaiotaomicron VPI-5482) (protein)
chain: KDWTQYVNPLMGSQSTFELSTGNTYPAIARPWGMNFWTPQTGKMGDGWQYTYTANKIRGFKQTHQPSPWINDYGQFSIMPIVGQPVFDEEKRASWFAHKGEVATPYYYKVYLAEHDIVTEMTPTERAVLFRFTFPENDHSYVVVDAFDKGSYIKIIPEENKIIGYTTRNSGGVPENFKNYFIIEFDKPFTYKATVENGNLQENVAEQTTDHAGAIIGFKTRKGEQVNARIASSFISFEQAAANMNELGKDNIEQLAQKGKDAWNQVLGKIEVEGGNLDQYRTFYSCLYRSLLFPRKFYELDANGQPIHYSPYNGQVLPGYMFTDTGFWDTFRCLFPLLNLMYPSVNKEMQEGLINTYLESGFFPEWASPGHRGCMVGNNSASILVDAYMKGVKVDDIKTLYEGLIHGTENVHPEVSSTGRLGYEYYNKLGYVPYDVKINENAARTLEYAYDDWCIYRLAKELKRPKKEISLFAKRAMNYKNLFDKESKLMRGRNEDGTFQSPFSPLKWGDAFTEGNSWHYTWSVFHDPQGLIDLMGGKEMFVTMMDSVFAVPPIFDDSYYGQVIHEIREMTVMNMGNYAHGNQPIQHMIYLYDYAGQPWKAQYWLRQVMDRMYTPGPDGYCGDEDNGQTSAWYVFSALGFYPVCPGTDEYVMGTPLFKKATLHFENGNSLVIDAPNNSTENFYIDSMSFNGADHTKNYLRHEDLFKGGTIKVDMSNRPNLNRGTKEEDMPYSFSKE
In general, Km refers to the substrate concentration at which the rate is half of its maximum. One may read the kcat as the number of substrate molecules converted per active site and unit of time at saturation. What is called kcat/Km is the turnover number divided by the Michaelis constant. B1: in data set [1] (enzyme Bt3990, pH 7.0), the Km is 4200 ± 420 µM, the kcat amounted to 0.0933 ± 0.00467 s⁻¹ and the kcat/Km is 21.7 M⁻¹ s⁻¹. Besides, in data set [2] (enzyme Bt3990, pH 7.0), the Km was found to be 760 ± 110 µM, the kcat was determined as 86.7 ± 5 s⁻¹ and the kcat/Km was determined as 113000 M⁻¹ s⁻¹.

B2: Bt3962 (Bacteroides thetaiotaomicron VPI-5482) (protein)
chain: QKQPVDYVNPLMGTDSKISLSNGNTYPAIALPWGMNFWMPQTGKMGDGWAYTYASDKIRGFKQTHQPSPWINDYGQFSIMPMTKQLKIDQDSRASWFSHKAEKATPYYYSVYLSEYNMTTEIAPTERCAYFRFTFPEASDAYVVVDAFDRGSYVKVIPEENKIVGYTTRNSGGVPQNFRNYFVIEFDKPFTFNKVWADYHLVETHLELQSNHVGAAIGFSTKKGEQVHAKVASSFISPEQAELNLKEIGNKTFEQTKEAGRKAWNDVLGRIKVEDDDENRMRTFYSCLYRSVLFPRMFHEVNAKGETVHYSPYNGEIRPGYMFTDTGFWDTFRCLFPFVNLIYPSMGEKMQEGLLNTYLESGFFPEWASPGHRGCMVGNNSASVVADAFMKNVTKADAEKMYEGLLKGANSVHPRVSTTGRRGYEYYNKLGYVPYDVKINENAARTLEYAYDDWCIYRMGEKLGRPAEELELYKSRSQNYRNLFDPETKLMRGKNADGTFQTPFNPFKWGDAFTEGNSWHYTWSVFHDVQGLADLMGGRKMFVSMLDSVFNLPPIFDDSYYGGVIHEIREMEIANMGNYAHGNQPIQHMIYLYNYAGEPWKAQYWLREVMNRLYFATPDGYCGDEDNGQTSAWYVFTALGFYPVCPGSNEYVMGAPYFKKATITLENGKKLEISAPKNSDANRYIRSLNYNGKNYTKNYLNHFDLLKGGRLVFDMDNKPNKGRGINESDFPYSFSRDNK
For B2, in data set [1] (enzyme Bt3962, pH 7.0), the Km worked out at 5000 ± 840 µM, the kcat stood at 0.283 ± 0.0267 s⁻¹ and the kcat/Km was 56.7 M⁻¹ s⁻¹. Besides, in data set [2] (enzyme Bt3962, pH 7.0), the Km was determined as 430 ± 52 µM, the kcat was 13.7 s⁻¹ and the specificity constant (kcat/Km) amounted to 31700 M⁻¹ s⁻¹.

B3: Bt3784 (Bacteroides thetaiotaomicron VPI-5482) (protein)
chain: MKTHFSFKHLLFIGGAVLYSMQISAVKNPVDYVSTLVGTQSKFELSTGNTYPATALPWGMNFWTPQTGKMGDGWAYTYNADKIRGFKQTHQPSPWMNDYGQFSIMPITGGLVFDQDQRASWFSHKAEVAKPYYYKVYLADHDVTTELVPTERAAMFRFTYPETKNAYVVIDAFDKGSYVKVIPEENKIIGYSTKNSGGVPENFKNYFVIQFDKPFTFTSGVKENNILPNETEVQGNHTGAIIGFATQKGEIVHARVASSFISYEQAELNLKELGKDSFDQLVTKGKDIWNREMSKVDVEDDNIDNLRTFYSCLYRSMLFPRSFYEIDAKGQVVHYSPYNGKVLPGYMFTDTGFWDTFRCLFPFLNLMYPSMNQKMQEGLVNAYLESGFLPEWASPGHRDCMVGNNSASVVADAYIKGLRGYDIETLWEALKHDANAHLRGTASGRLAYDAYNKLGYVPNNIGIGQNVARTLEYAYNDWTIYTLGKKLGKPASEIDIFKQRALNYKNVYHPKRKLMVGKDDKGVFNPKFDAVDWSGEFCEGNSWHWSFCVFHDPQGLIDLMGGKKEFNNMMDSVFVIPGKQGMESRGMIHEMREMQVMNMGQYAHGNQPIQHMVYLYNYSGEPWKAQHWVREIMDKLYTAGPDGYCGDEDNGQTSAWYVFSALGFYPVCPGTDQYILGTPLFKSAKLHLENGKTVTIKASNNNTDNRYVKDMKVNGKAFTRNYLTHDQLLKGANIQYQMSPTPNKQRGTTEKDIPYSLSFE
Regarding B3, in data set [1] (enzyme Bt3784, pH 7.0), the kcat is 0.08 ± 0.0065 s⁻¹ and the kcat/Km worked out at 11.5 M⁻¹ s⁻¹. Moreover, in data set [2] (enzyme Bt3784, pH 7.0), the kcat was 0.45 ± 0.0917 s⁻¹ and the kcat/Km was found to be 183 M⁻¹ s⁻¹.

B4: Bt2199 (Bacteroides thetaiotaomicron VPI-5482) (protein)
chain: MVTRLFFLSICFPFLLTSCQQSKKTVEFVDYVNPLMGTESTFAFSHGNTYPAVAVPWGMNFWSPQTGENGSGWMYTYTDSLMRGFRQTHQPSPWINDYGTFSIMPLAGELKMSHKERLVPFSHQQEKATPYNYSVTFNNGLQTSLSATSRGAVFEVSFPEKEDQYVVVDAYNGGSSITIEPEKRLVKGATRYNNGGVPDNFANYFMMEFSHPVIEYGTYNGDTLLHHQTDVAADYTCAYLKFDVPAGEKLTIRTASSFISPEQAAINFNREVADADVQLISGKAREQWNNYLGRVEAEGGTDEQLRTFYSCLYRTLLFPREFYEFDSQGNPVYYSPYDGNVHDGYMYTDNGFWDTFRAVHPLFTLLYPEVSERVTQSIINAYNESGFMPEWASPGHRGCMIGNNSVSLLVDAWMKGIQTVDAEKALEAMIHQTQARHAEIASVGRDGFEYYDKLGYVPYPEVPEATAKTLEYAYADWCIARFAESLGKQDIADQYYQKAPNYRNLYYPEHGFMWTKDAKGNWRDRFDATEWGGPFTEGSSWHWTWSVFHDPEGLSELMGGHEPMIARLDSMFVAPNTYNYGTYGFVIHEIAEMVALNMGQYAHGNQPVQHAIYLYDYIGQPWKTQYHLRNVMDKLYNSGSKGYCGDEDNGQTSAWYVFSAMGFYPVCPGMPEYAIGSPLFKKVTLHLPEGKNFVVSAADNAADRPYIRKALLNGQEFTRNYLTHDELKQGGELNLSMDSVPNQQRGTQPADFPYSYSK
On to B4, for which, in data set [1] (enzyme Bt2199, pH 7.0), the kcat came out at 0.105 ± 0.00483 s⁻¹ and the kcat/Km turned out to be 14 M⁻¹ s⁻¹. Further, in data set [2] (enzyme Bt2199, pH 7.0), the kcat was found to be 40 ± 2.33 s⁻¹ and the kcat/Km was found to be 60000 M⁻¹ s⁻¹.

B5: Bt3773 (Bacteroides thetaiotaomicron VPI-5482) (protein)
chain: KQDYSKSEGLLQYVDPYIGSGFHGHVFVGTSVPYGMVQLGPNNIHKGWDWCSGYHYSDSILIGFSHTHLSGTGCTDLGDILIMPLNEIRTPRGNQDDIRDGYASKYSHDNEIARPEYYSLILDRYNIKAELTATDRVGFHRYTYPEGKPVSILIDLREGNGSNAYDSYIRKVDDYTVEGYRYVRGWSPSRKVYFVLKSDQKIEKFTAYDDNTPKLWDQLKVESVKSVLTFGNVKEVKIKVAISSVSCDNAAMNLQAELSHWDFDKVVKMSSDRWNKQLDKMTVESDDEAAKRVFYTAHYHTMIAPTLYCDVNGEYRGMNDMIYTDPKKANYTTLSLWDTYRALNPLMTIIQPEMVDNVINSMLSIYRQQDKLPIWPLMSGETNCMPGYSSVPVIADAYLKGFTGFDAEEALTAMKATATYEGQNGVPYVMAKGYIPADKIHEATSIAMEYAVDDWGIAAMAQKMGKTADYETFSKRAHYYKNYFDSSIHFIRPKLEDGSWRTPYDPARSIHGVGDFCEGNGWQYTFFAPQDPYGLISLFGGDKPFTSKLDSFFTNNDSMGEGASSDITGLIGQYAHGNEPSHHIAYLYTYAGEQWKTAEKVRFIMSDFYTDQPDGIIGNEDCGQMSAWYLLSAMGFYQVNPSDGVFAFGSPRFKKIEVKVRGGKVFTVEAPNNSKDNIYIQKVYLNGKPYHKSYITYDDIINGSTLKFEMGKKPAKNFGKASANRPIVLNK
As for B5, in data set [3], the Km was found to be 2500 ± 370 µM, the kcat worked out at 0.0183 s⁻¹ and the kcat/Km is 7.5 M⁻¹ s⁻¹.

B6: Bt4092 (Bacteroides thetaiotaomicron VPI-5482) (protein)
chain: QLKDLVQYVNTLQGTDSNFGLSYGNTYPTTGMPYGMHMWSAQTGKNGDGFKYMYAVDKIRAFSQSHQCSPWVSDYAVYSFMPMVGELVVNQDARATKFSHDNEIAKPHYYKVTFDNGITTEMAPTTRGVHLRFSYPTTGDAYLVLDGYTDMSEIKIDPAKRQISGWVNNQRFVNDSKSFRNYFVVQFDKPFEDYGVWENQKDEVFPQKLDGAGKGYGAFIKFKKGSKVQAKAASSYISAEQALITLNKELGKDKNLEVTKARGQKTWNEVLNRIVVEGCTDEQMKTFYSCLFRANLFSRKFYERKENGEPYYYSPYNGKIYDGYMYTDNGFWDTFRSQFPLTNILHPTMQGRYMNALLAAQEQCGWLPSWSSPGETGGMLGNHSISLLADAWAKGIRDFDPEKALKAYAHEAMNKGPWGGANGRGFWKEYFQLGYVPYPESMGSSAQTMEYAYDDFCGYQLAKMVGNKHYQEVFARQMYNYKNVFDKSIGFMRGKGVDGKWQEPFDPLEWGGPFCEGNAWHYTWSVFHDVQGLIDLFGSDEKFTTKIDSVFTIPNIIKPGTYGGVIHEMKEMELANMGQYAHGNQPIQHMPYLYCYAGQPWKTQYWVRQIVERLYNSTEKGYPGDEDQGGMSSWYILSSLGIYAVCPGTDEYVIGSPLFKKATITMENGNKFVIEAPENSKENLYIQSATLNGRLLDKNYIHYDDIAEGGVLKFEMGSQPNKERCTSKYAAPFSLSKE
Consider B6, for which, in data set [2] (enzyme Bt4092, pH 7.0), the Km was 2000 ± 450 µM, the kcat came to 1.83 s⁻¹ and the kcat/Km is 900 M⁻¹ s⁻¹.
